From US20260116991A1 (HAINAN SIMCERE ZAIMING PHARMACEUTICAL, published 2026)

What was measured:
monkey GPC3-His protein [1] = molecular target: T1, monkey GPC3-His protein (monkey); assay: SPR, antibody captured on Protein A chip, monkey GPC3-His analyte;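 also: run at 25 °C with 240 s association and up to 600 s dissociation, double-referenced, kinetics fitted to a 1:1 Langmuir binding model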
T1 construct: Bought recombinant protein; also called monkey GPC3 protein

human GPC3-His protein = molecular target: T2, human GPC3-His protein (human, UniProt P51654 25-559); assay: SPR, antibody captured on Protein A chip, human GPC3-His analyte;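 also: measured at 25 °C flow cell, human GPC3-His injected at five concentrations up to 200 nM, 240 s association, up to 600 s dissociation, double-referenced, fitted to Langmuir 1:1 model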
T2 construct: also called human GPC3 protein; not shown: His tag

monkey GPC3-His protein [2] = molecular target: T1, monkey GPC3-His protein; assay: ELISA, monkey GPC3-His coated;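 also: Plate-coated antigen at 1 µg/mL, antibody binding 2 h at 37 °C, detected with HRP-labeled secondary antibody and TMB, absorbance at 450 nm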
Experimental: The specific method is described as follows: The antigen protein was diluted with PBS to a final concentration of 1 μg/mL, and the diluent was added to a 96-well ELISA plate at 50 μL/well. The plate was sealed with a plastic film and incubated at 4° C. overnight, washed twice with PBS the next day, and a blocking solution [PBS+2% (w/w) BSA] was added for blocking at room temperature for 2 h. […] After incubation at 37° C. for 2 h, the plate was washed 3 times with PBS. A horseradish peroxidase (HRP)-labeled secondary antibody (purchased from Merck, Cat. No. AP113P) was added for incubation at 37° C. for 1 h, and the plate was washed 5 times with PBS. A TMB substrate was added at 50 μL/well for incubation at room temperature for 10 min, then a stop solution (1.0M HCl) was added at 50 μL/well. An ELISA plate reader (Multimode Plate Reader, EnSight, purchased from Perkin Elmer) was used to read OD_{450 nm} values, with results as shown in Table 4 to Table 6, FIG. 1A, FIG. 1B, and FIG. 1C.

[3] = molecular target: T3, human GPC3 on CHO-K1-human GPC3 cells (CHOK1-hGPC3.2B5) (human, UniProt P51654 25-554); assay: FACS, CHOK1-hGPC3.2B5 cells;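 also: flow cytometry of humanized antibodies binding to the cells over one hour in the cold, read as cell mean fluorescence intensity, with EC50 obtained by curve fitting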
T3 construct: whole, on cells
Experimental: The desired cells were expanded to a logarithmic growth phase in a T-75 cell culture flask, the medium was removed by pipetting, and the cells were washed twice with a PBS buffer, and digested with trypsin. Then a complete medium was added to stop the digestion, and the cells were blown into a single cell suspension. After counting, the cells were centrifuged, and the cell pellet was resuspended with an FACS buffer (PBS+2% fetal bovine serum) to 2×10⁶ cells/mL. The cell resuspension solution was added to a 96-well FACS reaction plate at 50 μl/well, and a humanized antibody sample to be tested was added at 50 μl/well for incubation at 4° C. for 1 h. […] After the plate was centrifuged and washed 3 times with a PBS buffer, 100 μl of the resulting solution was assayed and analyzed by FACS (FACS Canto™, purchased from BD Biosciences). Data analysis was performed by software (FlowJo) to obtain the mean fluorescence intensity (MFI) of the cells. Then, analysis was performed by software (GraphPad Prism8), data were fitted, and EC₅₀ values were calculated.

[4] = molecular target: biotinylated labeled human GPC3 protein (produced in-house) (human, UniProt P51654 25-559, limits assumed, biotinylated (Dojindo, Cat. No. LK03); sites not stated); assay: ELISA, biotinylated human GPC3 protein

Binder	EC50 [3] [nM]	Max MFI [3] [MFI]	OD450 at 0.0008 nM [4] [OD450]	OD450 at 0.004 nM [4] [OD450]	OD450 at 0.02 nM [4] [OD450]	OD450 at 0.11 nM [4] [OD450]	OD450 at 0.53 nM [4] [OD450]	OD450 at 2.67 nM [4] [OD450]	OD450 at 13.33 nM [4] [OD450]	OD450 at 66.66 nM [4] [OD450]	also measured
F1.3.9 (antibody, human IgG1, kappa, V domains shown, Human-murine chimeric antibody) VH: QVQLQQPGTELVKPGASVKLSCKASGYTFTSYWIHWVKQRPGQGLEWIGNINPPNAGTNYNEKFKSKATLTVDKSSSTAYMQLSSLTSEDSAVYYCARGRWLLHDYWGQGTTLTVSS VL: DIQMTQSPASLSISVGETVTITCRASENIYSNLAWYQQKQGKSPQLLVYGTKNLAEGVPSRFSGSGSGTQYSLKINSLQSEDFGNYYCQHFWGTPYTFGGGTKLEILR	–	–	–	–	–	–	–	–	–	–	Kd (monkey GPC3-His protein [1]): 1.24 nM; koff (monkey GPC3-His protein [1]): 4.74e-05 s⁻¹; kon (monkey GPC3-His protein [1]): 38200 M⁻¹ s⁻¹; Kd (human GPC3-His protein): 2.54 nM; koff (human GPC3-His protein): 7.28e-05 s⁻¹; kon (human GPC3-His protein): 28700 M⁻¹ s⁻¹; OD450 at 0.0001 nM (monkey GPC3-His protein [2]): 0.04 OD450; OD450 at 0.001 nM (monkey GPC3-His protein [2]): 0.05 OD450; OD450 at 0.01 nM (monkey GPC3-His protein [2]): 0.16 OD450; OD450 at 0.1 nM (monkey GPC3-His protein [2]): 0.56 OD450; OD450 at 1 nM (monkey GPC3-His protein [2]): 1.52 OD450; OD450 at 10 nM (monkey GPC3-His protein [2]): 1.7 OD450; OD450 at 100 nM (monkey GPC3-His protein [2]): 1.82 OD450
hAb005LH1L1a (antibody, human IgG1, V domains shown, Humanized F3.54.12; VH H1 + VL L1a; expressed as human IgG1) VH: EVQLVQSGAEVKKPGASVKVSCKASGYTFTDYEMHWVRQAPGQGLEWMGAIDPETGNTAYIQKFKGRVTMTTDKSTSTAYMELRSLRSDDTAVYYCTRFYSYSHWGQGTTVTVSS VL: DIVMTQTPLSLPVTPGEPASISCRSSQSLVHSDGNTYLHWYLQKPGQSPQLLIYKVSNRFSGVPDRFSGSGSGTDFTLKISRVEAEDVGVYYCSQNTHVPPTFGGGTKVEIK	315	122	0.053	0.05	0.051	0.057	0.056	0.113	0.208	0.558	–
hAb005LH2L1b (antibody, human IgG1, V domains shown, Humanized F3.54.12; VH H2 + VL L1b; expressed as human IgG1) VH: EVQLVQSGAEVKKPGASVKVSCKASGYTFTDYEMHWVRQAPGQGLEWMGAIDPETGNTAYIQKFKGRVTLTTDKSTSTAYMELRSLRSDDTAVYYCTRFYSYSHWGQGTTVTVSS VL: DIVMTQTPLSLPVTPGEPASISCRSSQSLVHSNRNTYLHWYLQKPGQSPQLLIYKVSNRFSGVPDRFSGSGSGTDFTLKISRVEAEDVGVYYCSQNTHVPPTFGGGTKVEIK	0.54	4770	0.074	0.194	0.43	0.856	1.05	1.04	1.07	1.16	–
hAb005LH1L1b (antibody, human IgG1, V domains shown, Humanized F3.54.12; VH H1 + VL L1b; expressed as human IgG1) VH: EVQLVQSGAEVKKPGASVKVSCKASGYTFTDYEMHWVRQAPGQGLEWMGAIDPETGNTAYIQKFKGRVTMTTDKSTSTAYMELRSLRSDDTAVYYCTRFYSYSHWGQGTTVTVSS VL: DIVMTQTPLSLPVTPGEPASISCRSSQSLVHSNRNTYLHWYLQKPGQSPQLLIYKVSNRFSGVPDRFSGSGSGTDFTLKISRVEAEDVGVYYCSQNTHVPPTFGGGTKVEIK	0.491	4610	0.075	0.172	0.45	0.812	1.04	1.16	1.04	1.13	–
hAb005LH3L1a (antibody, human IgG1, V domains shown, Humanized F3.54.12; VH H3 + VL L1a; expressed as human IgG1) VH: EVQLVQSGAEVKKPGASVKVSCKASGYTFTDYEMHWVRQAPGQGLEWIGAIDPETGNTAYIQKFKGRATLTTDKSTSTAYMELRSLRSDDTAVYYCTRFYSYSHWGQGTTVTVSS VL: DIVMTQTPLSLPVTPGEPASISCRSSQSLVHSDGNTYLHWYLQKPGQSPQLLIYKVSNRFSGVPDRFSGSGSGTDFTLKISRVEAEDVGVYYCSQNTHVPPTFGGGTKVEIK	133	136	0.047	0.049	0.049	0.05	0.058	0.101	0.153	0.402	–
hAb005LH2L1a (antibody, human IgG1, V domains shown, Humanized F3.54.12; VH H2 + VL L1a; expressed as human IgG1) VH: EVQLVQSGAEVKKPGASVKVSCKASGYTFTDYEMHWVRQAPGQGLEWMGAIDPETGNTAYIQKFKGRVTLTTDKSTSTAYMELRSLRSDDTAVYYCTRFYSYSHWGQGTTVTVSS VL: DIVMTQTPLSLPVTPGEPASISCRSSQSLVHSDGNTYLHWYLQKPGQSPQLLIYKVSNRFSGVPDRFSGSGSGTDFTLKISRVEAEDVGVYYCSQNTHVPPTFGGGTKVEIK	118	153	0.049	0.049	0.053	0.048	0.066	0.148	0.249	0.589	–
